Here are results for 21 molecules from patent publication US20110118447A1.

B1: C5A (XPA23) light chain variable region S53T (antibody, V domains shown)
VH: EVQLLESGGGLVQPGGSLRLSCAASGFTFSKYFMFWVRQAPGKGLEWVSVISPSGGMTRYADSVKGRFTISRDNSKNTLYLQMNSLRAEDTAVYYCARVGYGGNSDYWGQGTLVTVSS
VL: DIQMTQSPSSVSASVGDRLTIICRASQDINRWLAWYQQTPGNAPKLLIHSATTLQSGVPSRFSGSGSGTDFTLTINSLQPEDFATYYCQQADSFPLTFGGGTKVEIK
B2: C5A (XPA23) light chain variable region D92L (antibody, V domains shown)
VH: EVQLLESGGGLVQPGGSLRLSCAASGFTFSKYFMFWVRQAPGKGLEWVSVISPSGGMTRYADSVKGRFTISRDNSKNTLYLQMNSLRAEDTAVYYCARVGYGGNSDYWGQGTLVTVSS
VL: DIQMTQSPSSVSASVGDRLTIICRASQDINRWLAWYQQTPGNAPKLLIHSATSLQSGVPSRFSGSGSGTDFTLTINSLQPEDFATYYCQQALSFPLTFGGGTKVEIK
B3: C5A (XPA23) light chain variable region S53L (antibody, V domains shown)
VH: EVQLLESGGGLVQPGGSLRLSCAASGFTFSKYFMFWVRQAPGKGLEWVSVISPSGGMTRYADSVKGRFTISRDNSKNTLYLQMNSLRAEDTAVYYCARVGYGGNSDYWGQGTLVTVSS
VL: DIQMTQSPSSVSASVGDRLTIICRASQDINRWLAWYQQTPGNAPKLLIHSATLLQSGVPSRFSGSGSGTDFTLTINSLQPEDFATYYCQQADSFPLTFGGGTKVEIK
B4: C5A (XPA23) light chain variable region S53A (antibody, V domains shown)
VH: EVQLLESGGGLVQPGGSLRLSCAASGFTFSKYFMFWVRQAPGKGLEWVSVISPSGGMTRYADSVKGRFTISRDNSKNTLYLQMNSLRAEDTAVYYCARVGYGGNSDYWGQGTLVTVSS
VL: DIQMTQSPSSVSASVGDRLTIICRASQDINRWLAWYQQTPGNAPKLLIHSATALQSGVPSRFSGSGSGTDFTLTINSLQPEDFATYYCQQADSFPLTFGGGTKVEIK
B5: C5A (XPA23) light chain variable region D92G (antibody, V domains shown)
VH: EVQLLESGGGLVQPGGSLRLSCAASGFTFSKYFMFWVRQAPGKGLEWVSVISPSGGMTRYADSVKGRFTISRDNSKNTLYLQMNSLRAEDTAVYYCARVGYGGNSDYWGQGTLVTVSS
VL: DIQMTQSPSSVSASVGDRLTIICRASQDINRWLAWYQQTPGNAPKLLIHSATSLQSGVPSRFSGSGSGTDFTLTINSLQPEDFATYYCQQAGSFPLTFGGGTKVEIK
B6: C5A (XPA23) light chain variable region D92A (antibody, V domains shown)
VH: EVQLLESGGGLVQPGGSLRLSCAASGFTFSKYFMFWVRQAPGKGLEWVSVISPSGGMTRYADSVKGRFTISRDNSKNTLYLQMNSLRAEDTAVYYCARVGYGGNSDYWGQGTLVTVSS
VL: DIQMTQSPSSVSASVGDRLTIICRASQDINRWLAWYQQTPGNAPKLLIHSATSLQSGVPSRFSGSGSGTDFTLTINSLQPEDFATYYCQQAASFPLTFGGGTKVEIK
B7: C5A (XPA23) light chain variable region S93I (antibody, V domains shown)
VH: EVQLLESGGGLVQPGGSLRLSCAASGFTFSKYFMFWVRQAPGKGLEWVSVISPSGGMTRYADSVKGRFTISRDNSKNTLYLQMNSLRAEDTAVYYCARVGYGGNSDYWGQGTLVTVSS
VL: DIQMTQSPSSVSASVGDRLTIICRASQDINRWLAWYQQTPGNAPKLLIHSATSLQSGVPSRFSGSGSGTDFTLTINSLQPEDFATYYCQQADIFPLTFGGGTKVEIK
B8: C5A (XPA23) light chain variable region S93T (antibody, V domains shown)
VH: EVQLLESGGGLVQPGGSLRLSCAASGFTFSKYFMFWVRQAPGKGLEWVSVISPSGGMTRYADSVKGRFTISRDNSKNTLYLQMNSLRAEDTAVYYCARVGYGGNSDYWGQGTLVTVSS
VL: DIQMTQSPSSVSASVGDRLTIICRASQDINRWLAWYQQTPGNAPKLLIHSATSLQSGVPSRFSGSGSGTDFTLTINSLQPEDFATYYCQQADTFPLTFGGGTKVEIK
B9: C5A (XPA23) light chain variable region D92T (antibody, V domains shown)
VH: EVQLLESGGGLVQPGGSLRLSCAASGFTFSKYFMFWVRQAPGKGLEWVSVISPSGGMTRYADSVKGRFTISRDNSKNTLYLQMNSLRAEDTAVYYCARVGYGGNSDYWGQGTLVTVSS
VL: DIQMTQSPSSVSASVGDRLTIICRASQDINRWLAWYQQTPGNAPKLLIHSATSLQSGVPSRFSGSGSGTDFTLTINSLQPEDFATYYCQQATSFPLTFGGGTKVEIK
B10: C5A (XPA23) light chain variable region S93G (antibody, V domains shown)
VH: EVQLLESGGGLVQPGGSLRLSCAASGFTFSKYFMFWVRQAPGKGLEWVSVISPSGGMTRYADSVKGRFTISRDNSKNTLYLQMNSLRAEDTAVYYCARVGYGGNSDYWGQGTLVTVSS
VL: DIQMTQSPSSVSASVGDRLTIICRASQDINRWLAWYQQTPGNAPKLLIHSATSLQSGVPSRFSGSGSGTDFTLTINSLQPEDFATYYCQQADGFPLTFGGGTKVEIK
B11: C5A (XPA23) light chain variable region A91T (antibody, V domains shown)
VH: EVQLLESGGGLVQPGGSLRLSCAASGFTFSKYFMFWVRQAPGKGLEWVSVISPSGGMTRYADSVKGRFTISRDNSKNTLYLQMNSLRAEDTAVYYCARVGYGGNSDYWGQGTLVTVSS
VL: DIQMTQSPSSVSASVGDRLTIICRASQDINRWLAWYQQTPGNAPKLLIHSATSLQSGVPSRFSGSGSGTDFTLTINSLQPEDFATYYCQQTDSFPLTFGGGTKVEIK
B12: C5A (XPA23) light chain variable region S53P (antibody, V domains shown)
VH: EVQLLESGGGLVQPGGSLRLSCAASGFTFSKYFMFWVRQAPGKGLEWVSVISPSGGMTRYADSVKGRFTISRDNSKNTLYLQMNSLRAEDTAVYYCARVGYGGNSDYWGQGTLVTVSS
VL: DIQMTQSPSSVSASVGDRLTIICRASQDINRWLAWYQQTPGNAPKLLIHSATPLQSGVPSRFSGSGSGTDFTLTINSLQPEDFATYYCQQADSFPLTFGGGTKVEIK
B13: C5A (XPA23) light chain variable region S93V (antibody, V domains shown)
VH: EVQLLESGGGLVQPGGSLRLSCAASGFTFSKYFMFWVRQAPGKGLEWVSVISPSGGMTRYADSVKGRFTISRDNSKNTLYLQMNSLRAEDTAVYYCARVGYGGNSDYWGQGTLVTVSS
VL: DIQMTQSPSSVSASVGDRLTIICRASQDINRWLAWYQQTPGNAPKLLIHSATSLQSGVPSRFSGSGSGTDFTLTINSLQPEDFATYYCQQADVFPLTFGGGTKVEIK
B14: C5A (XPA23) light chain variable region A91L (antibody, V domains shown)
VH: EVQLLESGGGLVQPGGSLRLSCAASGFTFSKYFMFWVRQAPGKGLEWVSVISPSGGMTRYADSVKGRFTISRDNSKNTLYLQMNSLRAEDTAVYYCARVGYGGNSDYWGQGTLVTVSS
VL: DIQMTQSPSSVSASVGDRLTIICRASQDINRWLAWYQQTPGNAPKLLIHSATSLQSGVPSRFSGSGSGTDFTLTINSLQPEDFATYYCQQLDSFPLTFGGGTKVEIK
B15: C5A (XPA23) light chain variable region S93A (antibody, V domains shown)
VH: EVQLLESGGGLVQPGGSLRLSCAASGFTFSKYFMFWVRQAPGKGLEWVSVISPSGGMTRYADSVKGRFTISRDNSKNTLYLQMNSLRAEDTAVYYCARVGYGGNSDYWGQGTLVTVSS
VL: DIQMTQSPSSVSASVGDRLTIICRASQDINRWLAWYQQTPGNAPKLLIHSATSLQSGVPSRFSGSGSGTDFTLTINSLQPEDFATYYCQQADAFPLTFGGGTKVEIK
B16: C5A (XPA23) light chain variable region D92I (antibody, V domains shown)
VH: EVQLLESGGGLVQPGGSLRLSCAASGFTFSKYFMFWVRQAPGKGLEWVSVISPSGGMTRYADSVKGRFTISRDNSKNTLYLQMNSLRAEDTAVYYCARVGYGGNSDYWGQGTLVTVSS
VL: DIQMTQSPSSVSASVGDRLTIICRASQDINRWLAWYQQTPGNAPKLLIHSATSLQSGVPSRFSGSGSGTDFTLTINSLQPEDFATYYCQQAISFPLTFGGGTKVEIK
B17: C5A (XPA23) light chain variable region A91V (antibody, V domains shown)
VH: EVQLLESGGGLVQPGGSLRLSCAASGFTFSKYFMFWVRQAPGKGLEWVSVISPSGGMTRYADSVKGRFTISRDNSKNTLYLQMNSLRAEDTAVYYCARVGYGGNSDYWGQGTLVTVSS
VL: DIQMTQSPSSVSASVGDRLTIICRASQDINRWLAWYQQTPGNAPKLLIHSATSLQSGVPSRFSGSGSGTDFTLTINSLQPEDFATYYCQQVDSFPLTFGGGTKVEIK
B18: C5A (XPA23) light chain variable region S53G (antibody, V domains shown)
VH: EVQLLESGGGLVQPGGSLRLSCAASGFTFSKYFMFWVRQAPGKGLEWVSVISPSGGMTRYADSVKGRFTISRDNSKNTLYLQMNSLRAEDTAVYYCARVGYGGNSDYWGQGTLVTVSS
VL: DIQMTQSPSSVSASVGDRLTIICRASQDINRWLAWYQQTPGNAPKLLIHSATGLQSGVPSRFSGSGSGTDFTLTINSLQPEDFATYYCQQADSFPLTFGGGTKVEIK
B19: C5A (XPA23) light chain variable region S93L (antibody, V domains shown)
VH: EVQLLESGGGLVQPGGSLRLSCAASGFTFSKYFMFWVRQAPGKGLEWVSVISPSGGMTRYADSVKGRFTISRDNSKNTLYLQMNSLRAEDTAVYYCARVGYGGNSDYWGQGTLVTVSS
VL: DIQMTQSPSSVSASVGDRLTIICRASQDINRWLAWYQQTPGNAPKLLIHSATSLQSGVPSRFSGSGSGTDFTLTINSLQPEDFATYYCQQADLFPLTFGGGTKVEIK
B20: C5A (XPA23) light chain variable region S53V (antibody, V domains shown)
VH: EVQLLESGGGLVQPGGSLRLSCAASGFTFSKYFMFWVRQAPGKGLEWVSVISPSGGMTRYADSVKGRFTISRDNSKNTLYLQMNSLRAEDTAVYYCARVGYGGNSDYWGQGTLVTVSS
VL: DIQMTQSPSSVSASVGDRLTIICRASQDINRWLAWYQQTPGNAPKLLIHSATVLQSGVPSRFSGSGSGTDFTLTINSLQPEDFATYYCQQADSFPLTFGGGTKVEIK
B21: C5A (XPA23) light chain variable region S53I (antibody, V domains shown)
VH: EVQLLESGGGLVQPGGSLRLSCAASGFTFSKYFMFWVRQAPGKGLEWVSVISPSGGMTRYADSVKGRFTISRDNSKNTLYLQMNSLRAEDTAVYYCARVGYGGNSDYWGQGTLVTVSS
VL: DIQMTQSPSSVSASVGDRLTIICRASQDINRWLAWYQQTPGNAPKLLIHSATILQSGVPSRFSGSGSGTDFTLTINSLQPEDFATYYCQQADSFPLTFGGGTKVEIK

For the test, the target named is binding partner of C5A (XPA23). Kind of test: Biacore, mutant vs original C5A (XPA23). On the technique in general: SPR reads the build-up and loss of mass on a sensor chip optically.
With B1, the fold difference in affinity in comparison to original worked out at 0.95 fold.

In the case of B2, the fold difference in affinity in comparison to original is 0.14 fold.

As to B3, the fold difference in affinity in comparison to original was 0.99 fold.

B4: the fold difference in affinity in comparison to original amounted to 1.07 fold.

B5: the fold difference in affinity in comparison to original is 0.26 fold.

For B6, the fold difference in affinity in comparison to original was found to be 0.4 fold.

Regarding B7, the fold difference in affinity in comparison to original came to 1.35 fold.

For the molecule B8, the fold difference in affinity in comparison to original is 1.47 fold.

As for B9, the fold difference in affinity in comparison to original was 0.34 fold.

With B10, the fold difference in affinity in comparison to original was 0.75 fold.

With B11, the fold difference in affinity in comparison to original came to 0.67 fold.

On to B12, for which the fold difference in affinity in comparison to original was 4.92 fold.

With B13, the fold difference in affinity in comparison to original came out at 3.81 fold.

On to B14, for which the fold difference in affinity in comparison to original was determined as 0.39 fold.

Take B15: the fold difference in affinity in comparison to original amounted to 1.16 fold.

With B16, the fold difference in affinity in comparison to original was found to be 0.33 fold.

As for B17, the fold difference in affinity in comparison to original worked out at 0.51 fold.

Regarding B18, the fold difference in affinity in comparison to original came to 1.03 fold.

As for B19, the fold difference in affinity in comparison to original was 1.08 fold.

As for B20, the fold difference in affinity in comparison to original was 1.42 fold.

Turning to B21, the fold difference in affinity in comparison to original came to 1.42 fold.
